Data set [1] has as its system HeLa Kyoto. The experiment in a line: solubility in G1/S (NP-40 vs SDS abundance) (log2 ratio); higher = more soluble. The conditions noted are these: cell cycle stage: G1/S.
Data set [2] concerns HeLa Kyoto. Put plainly: melting temperature (median over replicates), in situ; higher = more thermally stable.
For data set [3], the system named is HeLa Kyoto. The experiment in a line: solubility change mitosis vs G1/S (difference of NP-40 vs SDS log2 ratios) (log2 ratio difference); higher = more soluble in mitosis.
In data set [4] the test system is HeLa Kyoto. The experiment in a line: thermal stability score vs G1/S (z-score of summed log2 fold changes over temperatures); higher = more thermally stable than in G1/S.
The mark [5] stands for this setting: cell cycle stage: early G1 (4.5 h after nocodazole release).

Seven sequences from the supplement of paper PMC5998384 can be followed below.
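Throughout, for melting temperature (median over replicates), in situ: HeLa Kyoto cells synchronized by double thymidine or nocodazole block, proteins quantified by TMT10plex mass spectrometry, three independent biological replicates.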
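Throughout, for solubility change mitosis vs G1/S (difference of NP-40 vs SDS log2 ratios): synchronized HeLa Kyoto cells (double thymidine block for G1/S, nocodazole release for mitosis), protein amounts in NP-40 versus SDS lysates quantified by mass spectrometry, three biological replicates.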
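Throughout, for solubility in G1/S (NP-40 vs SDS abundance): HeLa Kyoto cells arrested at G1/S by double thymidine block, proteins quantified by TMT10plex mass spectrometry in mild NP-40 versus SDS extracts, three biological replicates.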
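Throughout, for thermal stability score vs G1/S (z-score of summed log2 fold changes over temperatures): synchronized HeLa Kyoto cells, proteins quantified by TMT10plex mass spectrometry, three biological replicates, mitosis taken 0.5 h after nocodazole release, G1/S directly after double thymidine block.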

Turning to “MASEDIAKLAETLAKTQVAGGQLSFKGKSLKLNTAEDAKDVIKEIEDFDSLEALRLEGNTVGVEAARVIAKALEKKSELKRCHWSDMFTGRLRTEIPPALISLGEGLITAGAQLVELDLSDNAFGPDGVQGFEALLKSSACFTLQELKLNNCGMGIGGGKILAAALTECHRKSSAQGKPLALKVFVAGRNRLENDGATALAEAFRVIGTLEEVHMPQNGINHPGITALAQAFAVNPLLRVINLNDNTFTEKGAVAMAETLKTLRQVEVINFGDCLVRSKGAVAIADAIRGGLPKLKELNLSFCEIKRDAALAVAEAMADKAELEKLDLNGNTLGEEGCEQLQEVLEGFNMAKVLASLSDDEDEEEEEEGEEEEEEAEEEEEEDEEEEEEEEEEEEEEPQQRGQGEKSATPSRKILDPNTGEPAPVLSSPPPADVSTFLAFPSPEKLLRLGPKSSVLIAQQTDTSDPEKVVSAFLKVSSVFKDEATVRMAVQDAVDALMQKAFNSSSFNSNTFLTRLLVHMGLLKSEDKVKAIANLYGPLMALNHMVQQDYFPKALAPLLLAFVTKPNSALESCSFARHSLLQTLYKV [RANGAP1]”, the “solubility in G1/S (log2)” value in the data set with HeLa Kyoto [1] worked out at 0.166. The melting temperature in the data set on HeLa Kyoto [2] (cell cycle stage: G1/S) was determined as 48.6 °C; in the data set on HeLa Kyoto [2] (cell cycle stage: mitosis), 49 °C. For the same sequence, the “solubility change mitosis (log2)” value with HeLa Kyoto [3] came to 0.199. For the same sequence, the thermal stability score turned out to be 0.55 in the data set with HeLa Kyoto [4] (setting [5]) and 2.63 in the data set with HeLa Kyoto [4] (cell cycle stage: mitosis).
Turning to “MASEELQKDLEEVKVLLEKATRKRVRDALTAEKSKIETEIKNKMQQKSQKKAELLDNEKPAAVVAPITTGYTVKISNYGWDQSDKFVKIYITLTGVHQVPTENVQVHFTERSFDLLVKNLNGKSYSMIVNNLLKPISVEGSSKKVKTDTVLILCRKKVENTRWDYLTQVEKECKEKEKPSYDTETDPSEGLMNVLKKIYEDGDDDMKRTINKAWVESREKQAKGDTEF [CACYBP]”, the “solubility in G1/S (log2)” value with HeLa Kyoto [1] was 0.412. Further, the melting temperature with HeLa Kyoto [2] (cell cycle stage: G1/S) and in the data set on HeLa Kyoto [2] (cell cycle stage: mitosis) was 52.2 °C each time. The “solubility change mitosis (log2)” value in the data set with HeLa Kyoto [3] is -0.0888. The thermal stability score was 0.00133 in the data set on HeLa Kyoto [4] (setting [5]) and -1.11 with HeLa Kyoto [4] (cell cycle stage: mitosis).
For the sequence “MASEQDVRARLQRAGQEHLLRFWAELAPEPRAALLAELALLEPEALREHCRRAAEACARPHGPPPDLAARLRPLPPERVGRASRSDPETRRRWEEEGFRQISLNKVAVLLLAGGQGTRLGVTYPKGMYRVGLPSRKTLYQLQAERIRRVEQLAGERHGTRCTVPWYVMTSEFTLGPTAEFFREHNFFHLDPANVVMFEQRLLPAVTFDGKVILERKDKVAMAPDGNGGLYCALEDHKILEDMERRGVEFVHVYCVDNILVRLADPVFIGFCVLQGADCGAKVVEKAYPEEPVGVVCQVDGVPQVVEYSEISPETAQLRASDGSLLYNAGNICNHFFTRGFLKAVTREFEPLLKPHVAVKKVPYVDEEGNLVKPLKPNGIKMEKFVFDVFRFAKNFAALEVLREEEFSPLKNAEPADRDSPRTARQALLTQHYRWALRAGARFLDAHGAWLPELPSLPPNGDPPAICEISPLVSYSGEGLEVYLQGREFQSPLILDEDQAREPQLQES [UAP1L1]”, in the data set on HeLa Kyoto [1], the “solubility in G1/S (log2)” value amounted to 0.127. For the same sequence, the values for the melting temperature in the data set on HeLa Kyoto [2] (cell cycle stage: G1/S) and in the data set with HeLa Kyoto [2] (cell cycle stage: mitosis) were 52.3 °C and 53.1 °C, respectively. The “solubility change mitosis (log2)” value in the data set on HeLa Kyoto [3] is -0.0981. Further, the values for the thermal stability score in the data set with HeLa Kyoto [4] (setting [5]) and in the data set with HeLa Kyoto [4] (cell cycle stage: mitosis) were -0.582 and -0.781, respectively.
For the sequence “MASERLPNRPACLLVASGAAEGVSAQSFLHCFTMASTAFNLQVATPGGKAMEFVDVTESNARWVQDFRLKAYASPAKLESIDGARYHALLIPSCPGALTDLASSGSLARILQHFHSESKPICAVGHGVAALCCATNEDRSWVFDSYSLTGPSVCELVRAPGFARLPLVVEDFVKDSGACFSASEPDAVHVVLDRHLVTGQNASSTVPAVQNLLFLCGSRK [PDDC1]”, in the data set with HeLa Kyoto [1], the “solubility in G1/S (log2)” value turned out to be 0.169. In addition, the melting temperature with HeLa Kyoto [2] (cell cycle stage: G1/S) was determined as 55 °C; with HeLa Kyoto [2] (cell cycle stage: mitosis) it was 55.4 °C. Moreover, the “solubility change mitosis (log2)” value in the data set on HeLa Kyoto [3] was -0.0189. The thermal stability score with HeLa Kyoto [4] (setting [5]) was -1.01; with HeLa Kyoto [4] (cell cycle stage: mitosis), -0.729.
Take “MASGAYNPYIEIIEQPRQRGMRFRYKCEGRSAGSIPGEHSTDNNRTYPSIQIMNYYGKGKVRITLVTKNDPYKPHPHDLVGKDCRDGYYEAEFGQERRPLFFQNLGIRCVKKKEVKEAIITRIKAGINPFNVPEKQLNDIEDCDLNVVRLCFQVFLPDEHGNLTTALPPVVSNPIYDNRAPNTAELRICRVNKNCGSVRGGDEIFLLCDKVQKDDIEVRFVLNDWEAKGIFSQADVHRQVAIVFKTPPYCKAITEPVTVKMQLRRPSDQEVSESMDFRYLPDEKDTYGNKAKKQKTTLLFQKLCQDHVETGFRHVDQDGLELLTSGDPPTLASQSAGITVNFPERPRPGLLGSIGEGRYFKKEPNLFSHDAVVREMPTGVSSQAESYYPSPGPISSGLSHHASMAPLPSSSWSSVAHPTPRSGNTNPLSSFSTRTLPSNSQGIPPFLRIPVGNDLNASNACIYNNADDIVGMEASSMPSADLYGISDPNMLSNCSVNMMTTSSDSMGETDNPRLLSMNLENPSCNSVLDPRDLRQLHQMSSSSMSAGANSNTTVFVSQSDAFEGSDFSCADNSMINESGPSNSTNPNSHGFVQDSQYSGIGSMQNEQLSDSFPYEFFQV [REL]”: the “solubility in G1/S (log2)” value with HeLa Kyoto [1] was -0.0913. Also, the melting temperature in the data set with HeLa Kyoto [2] (cell cycle stage: G1/S) came to 49.5 °C; in the data set with HeLa Kyoto [2] (cell cycle stage: mitosis), 50.5 °C. Further, in the data set with HeLa Kyoto [3], the “solubility change mitosis (log2)” value is -0.0913. Besides, the thermal stability score in the data set on HeLa Kyoto [4] (setting [5]) was -0.962; with HeLa Kyoto [4] (cell cycle stage: mitosis), -0.219.
On to “MASGNARIGKPAPDFKATAVVDGAFKEVKLSDYKGKYVVLFFYPLDFTFVCPTEIIAFSNRAEDFRKLGCEVLGVSVDSQFTHLAWINTPRKEGGLGPLNIPLLADVTRRLSEDYGVLKTDEGIAYRGLFIIDGKGVLRQITVNDLPVGRSVDEALRLVQAFQYTDEHGEVCPAGWKPGSDTIKPNVDDSKEYFSKHN [PRDX2]”, for which the “solubility in G1/S (log2)” value with HeLa Kyoto [1] came to 0.354. The values for the melting temperature with HeLa Kyoto [2] (cell cycle stage: G1/S) and in the data set on HeLa Kyoto [2] (cell cycle stage: mitosis) were 55 °C and 55.1 °C, respectively. Further, the “solubility change mitosis (log2)” value in the data set on HeLa Kyoto [3] was determined as 0.0464. For the same sequence, the thermal stability score in the data set with HeLa Kyoto [4] (setting [5]) is -3.24; with HeLa Kyoto [4] (cell cycle stage: mitosis), -3.32.
For the sequence “MASKRALVILAKGAEEMETVIPVDVMRRAGIKVTVAGLAGKDPVQCSRDVVICPDASLEDAKKEGPYDVVVLPGGNLGAQNLSESAAVKEILKEQENRKGLIAAICAGPTALLAHEIGFGSKVTTHPLAKDKMMNGGHYTYSENRVEKDGLILTSRGPGTSFEFALAIVEALNGKEVAAQVKAPLVLKD [PARK7]”, in the data set on HeLa Kyoto [1], the “solubility in G1/S (log2)” value came to 0.529. Also, the results for the melting temperature in the data set on HeLa Kyoto [2] (cell cycle stage: G1/S) and with HeLa Kyoto [2] (cell cycle stage: mitosis) were 56.8 °C and 57.4 °C, respectively. The “solubility change mitosis (log2)” value in the data set on HeLa Kyoto [3] is 0.0696. Moreover, the thermal stability score in the data set with HeLa Kyoto [4] (setting [5]) is 1.01; in the data set with HeLa Kyoto [4] (cell cycle stage: mitosis), -0.859.
